Data on 13 molecules can be found in patent publication US20250368734A1 (ANTENGENE BIOLOGICS, published 2025).

In assay [1] the target is T1, human GPRC5D (human, UniProt Q9NZD1 1-345).
T1 construct: whole, on cells; also called hGPRC5D; G-protein coupled receptor family C group 5 member D
Briefly: FACS, CHOS-hGPRC5D cells.

A further assay addresses T2, mouse GPRC5D (mouse, UniProt Q9JIL6 1-344).
T2 construct: whole, on cells; HEK293T-mGPRC5D cells; also called mGPRC5D; murine GPRC5D
T2 sequence (looked up): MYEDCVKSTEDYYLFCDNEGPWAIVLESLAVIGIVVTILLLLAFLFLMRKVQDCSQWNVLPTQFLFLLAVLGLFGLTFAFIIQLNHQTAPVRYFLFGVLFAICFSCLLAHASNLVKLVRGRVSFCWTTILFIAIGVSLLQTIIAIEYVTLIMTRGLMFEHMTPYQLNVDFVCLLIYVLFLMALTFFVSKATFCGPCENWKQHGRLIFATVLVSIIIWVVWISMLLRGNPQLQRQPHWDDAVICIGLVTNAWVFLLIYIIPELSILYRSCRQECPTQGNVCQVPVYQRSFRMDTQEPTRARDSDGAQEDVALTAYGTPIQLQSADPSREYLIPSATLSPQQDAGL
Briefly: FACS, HEK293T-mGPRC5D cells.

Assay [2] has as its target T3, cynomolgus monkey GPRC5D (cynomolgus monkey).
T3 construct: whole, on cells; HEK293T-cynoGPRC5D cells; also called cynoGPRC5D
The assay can be described thus: FACS, HEK293T-cynoGPRC5D cells.

For assay [3], the target named is T1, human GPRC5D. The assay can be described thus: FACS, OPM-2 cells. An excerpt:
(§1) The subcloning plates were screened by Mirrorball assay and the subclones with good binding ability were expanded to 24-wells for confirmation tests. The specificity and cross-reactivity of these subclones were confirmed with FACS analysis. Briefly, parental HEK293T, HEK293T cells stably over-expressing human GPRC5D protein (i.e., HEK293T-hGPRC5D), HEK293T cells stably over-expressing cynomolgus monkey GPRC5D protein (i.e., HEK293T-cynoGPRC5D), HEK293T cells stably over-expressing mouse GPRC5D protein (i.e., HEK293T-mGPRC5D), and OPM2 cells were incubated with antibodies produced by each subclone, respectively. Fluorescent dye-conjugated secondary antibody was used to detect the binding of the primary antibody with the cells. Median fluorescence intensity (MFI) was measured by FACS analysis,
(§2) As a result, 21 antibodies were discovered with unique sequences showing positive binding with HEK293T-hGPRC5D and OPM2 cells. Among which, some clones could also bind with HEK293T-cynoGPRC5D and/or HEK293T-mGPRC5D. […] ATG596 was a positive human IgG1 control antibody which comprises a VH region having an amino acid sequence as set forth in SEQ ID NO: 199, and a VL region having an amino acid sequence as set forth in SEQ ID NO: 200.

For assay [4], the target named is T1, human GPRC5D. Briefly: FACS, HEK293T-hGPRC5D cells.
Excerpt: as §1, §2

Assay [5] deals with T3, cynomolgus monkey GPRC5D. Briefly: FACS, HEK293T-cynoGPRC5D cells.
Excerpt: as §1, §2
The source holds these as a separate data set.

Numbering of substitutions follows the chain as printed.

T1 sequence (Q9NZD1 whole entry): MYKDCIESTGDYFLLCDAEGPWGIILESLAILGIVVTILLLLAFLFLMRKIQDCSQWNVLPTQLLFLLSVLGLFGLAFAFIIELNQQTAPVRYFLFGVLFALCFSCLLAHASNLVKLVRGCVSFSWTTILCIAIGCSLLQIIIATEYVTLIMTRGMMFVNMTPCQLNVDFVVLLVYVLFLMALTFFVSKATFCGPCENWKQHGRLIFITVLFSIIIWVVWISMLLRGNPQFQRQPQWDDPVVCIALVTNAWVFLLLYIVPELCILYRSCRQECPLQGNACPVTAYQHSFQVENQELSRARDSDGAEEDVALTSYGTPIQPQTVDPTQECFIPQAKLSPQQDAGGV

B1: ch89F11E3 (antibody, V domains shown)
VH: QVQLQQSGAELARPGASVKMSCKASGYTFTSSTIHWVKQRPGQGLAWIGYIVPSTGYTNYNQKFKDKATLTADKSSSTAYMQLTSLTSEDSAVYYCARSDGYPFGYSMAYWGQGTSVTVSS
VL: DIQMNQSPSSLSASLGDTITITCHASQNINVWLSWYHQKPGNIPKLLIYKASNLHTGVPSRFSGSGSGTGFTLTISRLQPEDIATYYCQQGQSYPFTFGSGTKLEIK
B1: the EC50 was determined as 2.41 nM with human GPRC5D [1], 14.2 nM with mouse GPRC5D and 278 nM with cynomolgus monkey GPRC5D [2]. Also, the values for the Top with human GPRC5D [1], with mouse GPRC5D and with cynomolgus monkey GPRC5D [2] were 2600, 77300 and 40500, respectively.

B2: 119E4B4 (antibody, V domains shown)
VH: EVQLQQSGAELVKPGASVKLSCTASGFNIKDTYMHWVKQRPEQGLEWIGRIDPANGNTKYDPKFQGKATITADTSSNTAYLQLSSLTSEDTAVYYCARDYGNYEDYAMDYWGQGTSVTVSS
VL: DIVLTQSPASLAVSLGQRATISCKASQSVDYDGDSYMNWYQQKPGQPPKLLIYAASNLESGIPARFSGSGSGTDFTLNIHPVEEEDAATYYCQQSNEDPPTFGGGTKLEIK
notes: Mouse monoclonal antibody from hybridoma subclone
Turning to B2, the results for the “% Positive” value in the assay with human GPRC5D [3], with human GPRC5D [4] and with cynomolgus monkey GPRC5D [5] were 98.6%, 88.2% and 69.6%, respectively. The results for the MFI with human GPRC5D [3], with human GPRC5D [4] and with cynomolgus monkey GPRC5D [5] were 867, 3240 and 709, respectively.

B3: ch15D6G2 (antibody, V domains shown)
VH: EVQLVESGGDLVKPGGYLRLSCAASGFTFSSHGMSWVRQTPDKRLEWVATISSGGRNTYYPDSVKGRFTISRDNAKNILYLQMSSLKSEDTAMFYCTRHSGDAMDYWGQGTSVTVSS
VL: DILLTQSPAILSVSPGERVSFSCRASQSIGTNIHWYQQRTNGSPRLLIKYASESISGIPSRFSGSGSGTDFTLSINSVESEDIADYYCQQSKSWPTFGGGTKLEIK
Take B3: the EC50 with human GPRC5D [1] is 1.27 nM; with mouse GPRC5D, 592 nM; in the assay with cynomolgus monkey GPRC5D [2], 19.3 nM. Further, the Top in the assay with human GPRC5D [1] came out at 4080; in the assay with mouse GPRC5D, 648000; in the assay with cynomolgus monkey GPRC5D [2], 123000.

B4: 116G1G4 (antibody, V domains shown)
VH: EVQLQQSGPELVKPGASVKMSCKASGYTFTYYIMHWVKQEPGQGLQWIGYINPYNDGAYYSARFKGKATLTSDKSSSTAYMDLTSLTSEDSAVYYCARGGVRRYFDVWGAGTTVTVSS
VL: DIQMTQSPSSLSASLGERVILTCRASQDIGSNLIWLQQKPDGTIKRLIYATFNLDSGVSKRFSGSRSGSDYSLTISSLDSEDFVDYYCLQYASSPYTFGGGTKLEIK
notes: as for B2
Regarding B4, the “% Positive” value with human GPRC5D [3] was 97.4%; with human GPRC5D [4] it was 94.4%; with cynomolgus monkey GPRC5D [5], 59.8%. Also, the MFI amounted to 706 in the assay with human GPRC5D [3], 6050 with human GPRC5D [4] and 344 in the assay with cynomolgus monkey GPRC5D [5].

B5: ch12G12C2 (antibody, V domains shown)
VH: QIQLVQSGPELKMPGETVKISCKASGYTFTTYGLSWVKQAPGKGLKWMGWINTFSGVPIYADDFKGRFAFSLETSASTAYLQINNLKNEDTATYFCARWGIRQRGDYWGQGATLTVSS
VL: QIVLTQSPAIMSASPGEKVTMTCSASSSVSYLHWYQQKSGTSPKRWIYDTSKLASGVPVRFSGSGSETSYSLTISSMEAEDAATYYCQQWTSNPPTFGGGTKLEIK
Turning to B5, the 50% effective concentration (EC50) with human GPRC5D [1] came out at 4.06 nM; in the assay with mouse GPRC5D, 995 nM; with cynomolgus monkey GPRC5D [2], 5.94 nM. Moreover, the Top in the assay with human GPRC5D [1] is 3120; with mouse GPRC5D it was 1.48e+06; in the assay with cynomolgus monkey GPRC5D [2], 28200.

B6: ch26E2H6 (antibody, V domains shown)
VH: EVQLVESGGDLVKPGGSLKLSCAASGFTFSSYGMSWVRQTPDKRLEWVATISSGGSYTYYPDSVKGRFTISRDNAKNTLYLQMSSLKSEDTAMYYCARHATDYWGQGTTLTVSS
VL: B5 VL with L32M, V59A, E67G, T91S, P95L, G99A, I105L
Take B6: the EC50 was found to be 3.02 nM with human GPRC5D [1], 184 nM with mouse GPRC5D and 40.4 nM with cynomolgus monkey GPRC5D [2]. The Top with human GPRC5D [1] stood at 2910; with mouse GPRC5D, 45700; with cynomolgus monkey GPRC5D [2], 51300.

B7: 83A9B8 (antibody, V domains shown)
VH: EVQLQQSGPELVKPGASVKMSCKASGYTFSNYVIHWVKQKPGQGLEWIGYFNPYNDGSKYNEKFKGKATLTSDKSSSTAYMELSSLTSEDSAVYYCARGGVRRYFDVWGAGTTVTVSS
VL: DIQMTQSPSSLSASLGERVSLTCRASQDIGDNLNWLQQEPDGTIKRLIYATFSLDSGVPKRFSGSRSGSVYSLTISRLESEDFVDYFCLHYASFPYTFGGGTKLEIK
notes: as for B2
For the molecule B7, the figures for the “% Positive” value with human GPRC5D [3], in the assay with human GPRC5D [4] and with cynomolgus monkey GPRC5D [5] were 98.3%, 94.1% and 55.7%, respectively. Moreover, the MFI was 824 with human GPRC5D [3], 4930 in the assay with human GPRC5D [4] and 278 with cynomolgus monkey GPRC5D [5].

B8: ch96C9E7 (antibody, V domains shown)
VH: B7 VH with S30T, N31Y, V33I, I34L, S58N, Y60F, K63R, K65R, S84N, Y95F
VL: B7 VL with D31S, Y49S, V70D, R77S, D85N, F87Y, H90Q
For B8, the EC50 stood at 1.97 nM with human GPRC5D [1], 18.5 nM with mouse GPRC5D and 8.25 nM in the assay with cynomolgus monkey GPRC5D [2]. Besides, the Top with human GPRC5D [1] was 2830; with mouse GPRC5D, 19200; with cynomolgus monkey GPRC5D [2], 34300.

B9: ch98A3A8 (antibody, V domains shown)
VH: B7 VH with S30T, N31Y, I34T, K38R, F51I, S58T, K59M, Y60F, L83F, Y94F
VL: B4 VL with I20S, I34N, F52S, N53S, S59P, S76N, D79E, S94F
Take B9: the values for the concentration for a half-maximal effect (EC50) with human GPRC5D [1], in the assay with mouse GPRC5D and with cynomolgus monkey GPRC5D [2] were 1.39 nM, 69.6 nM and 9.78 nM, respectively. For the same molecule, the figures for the Top in the assay with human GPRC5D [1], in the assay with mouse GPRC5D and in the assay with cynomolgus monkey GPRC5D [2] were 2970, 26000 and 46800, respectively.

B10: 116F1G6 (antibody, V domains shown)
VH: B7 VH with Q6H, S30T, N31T, I34M, F51I, S58T
VL: B7 VL with D31S, D41N, S53T, V70D, R77S, F87Y, H90Q
notes: as for B2
Turning to B10, the results for the “% Positive” value with human GPRC5D [3], in the assay with human GPRC5D [4] and with cynomolgus monkey GPRC5D [5] were 98.4%, 96.2% and 41.4%, respectively. Further, the MFI is 1040 with human GPRC5D [3], 42800 with human GPRC5D [4] and 82.6 with cynomolgus monkey GPRC5D [5].

B11: ch20C4E1 (antibody, V domains shown)
VH: EVRLVESGGALVRPGGSLKLSCAASGFTFSDYGMHWVRQAPEKGLEWIAFISSVSFTIYYADTVKGRFTISRDNAKNTLFLQMTSLRSEDTALYYCTRLGPHWYFDVWGTGTTVTVSS
VL: DVVLTQTPLSLPVSLGDQASISCRSSQSLVYSNGNTYLHWFLQKPGQSPQLLIYKVSNRFSGVPDRFSGSGSGTDFTLKISRVEAEDLGVYFCSQSTPVPTFGGGTKLEIK
On to B11, for which the EC50 with human GPRC5D [1] was determined as 2.83 nM; in the assay with mouse GPRC5D it was 3940 nM; with cynomolgus monkey GPRC5D [2], 11.5 nM. Also, the Top was 4110 with human GPRC5D [1], 5.06e+06 in the assay with mouse GPRC5D and 45800 in the assay with cynomolgus monkey GPRC5D [2].

B12: ch90G6H3 (antibody, V domains shown)
VH: QAYLQQSGAELVRSGASVKMSCKASGYTFTSYIMHWVKQTPGQGLEWIGYIYPGNGGTNYNQKFKDKATLSADTSSSTAYMQINSLTSEDSAVYFCARWGLRQGFAYWGQGTLVSVSA
VL: DIVMTQSQKFMSTSVGDRVSVTCKASQNVGGNVAWYQQKPGQSPKALIYSTSYRNSGVPDRFTGSGSGTDFTLTISNVQSEDLAEYFCQQYNSYPFTFGSGTKLEIR
Regarding B12, the EC50 in the assay with human GPRC5D [1] is 8.51 nM; with mouse GPRC5D, 12.3 nM; with cynomolgus monkey GPRC5D [2], 13.6 nM. Further, the Top was found to be 2250 with human GPRC5D [1], 55300 with mouse GPRC5D and 61600 with cynomolgus monkey GPRC5D [2].

B13: ch28H9C12 (antibody, V domains shown)
VH: EVQLVESGGGLVKPGGSLKLSCAASGFTFSDYGMHWVRQAPEKGLEWVAYISSGSSTIYYADTVKGRFTISRDNAKNTLFLQMTSLRSEDTAIYYCVRRPWYFDVWGTGTTVTVSS
VL: DVLMTQTPLSLPVSLGDQASISCRSSQSIVHSNGNTYLQWYLQKPGQSPKLLIYKVSNRFSGVPDRFSGSGSGTDFTLKISRLEAEDLGVYYCFQGSHVPFTFGSGTKLEIK
In the case of B13, the concentration giving a half-maximal response (EC50) with human GPRC5D [1] is 2.83 nM; in the assay with mouse GPRC5D it was 110 nM; with cynomolgus monkey GPRC5D [2] it was 14.8 nM. Also, the Top with human GPRC5D [1] stood at 3960; with mouse GPRC5D, 26500; with cynomolgus monkey GPRC5D [2] it was 65900.
